Patent US20240067729A1

Tests used:
[1] = target: human PD-L1, his tagged (hPD-L1-his) (human) (UniProt Q9NZQ7); assay: ELISA on coated hPD-L1-his, negative control
[2] = target: cynomolgus PD-L1, his tagged (cPD-L1-his) (cynomolgus (Macaca fascicularis)) (UniProt G7PSE7); assay: ELISA on coated cPD-L1-his, negative control
[3] = target: human PD-L1 Fc fusion (hPD-L1-Fc) (human) (UniProt Q9NZQ7); assay: blocking ELISA: residual biotin-hPD-1-Fc signal on coated hPD-L1-Fc, negative control
human PD-L1 Fc fusion (hPD-L1-Fc) (human), sequence (Q9NZQ7 19-238 limits assumed): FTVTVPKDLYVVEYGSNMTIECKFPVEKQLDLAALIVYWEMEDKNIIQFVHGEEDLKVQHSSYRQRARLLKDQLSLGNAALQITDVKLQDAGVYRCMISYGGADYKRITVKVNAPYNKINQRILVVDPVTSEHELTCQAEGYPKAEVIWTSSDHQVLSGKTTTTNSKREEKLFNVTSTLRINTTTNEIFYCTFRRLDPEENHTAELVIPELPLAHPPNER

human PD-L1, his tagged (hPD-L1-his) (human), sequence (Q9NZQ7 19-238 limits assumed): as above
cynomolgus PD-L1, his tagged (cPD-L1-his) (cynomolgus (Macaca fascicularis)), sequence (G7PSE7 entry or part of it limits assumed, form in doubt): as the sequence (Q9NZQ7 19-238 limits assumed) above, with A33T, A34S, S62N, R68Q, Q82R, F173L, T185A, T192I, H215L counted along it

A450 [1]: 0.034 A450 | A450 [2]: 0.0348 A450 | Block Residual % [3]: 60%
Substance: NEG (negative control of the hybridoma supernatant screen)
